Experimental data published in US11932908B2, “Compositions and methods for diagnosis and treatment of epilepsy” (THE REGENTS OF THE UNIVERSITY OF CALIFORNIA, priority 2004, dated 2024).
“Also recorded” adds a separate entry of the source.

Key:
[1] = tested on: mouse hippocampal primary culture neurons; conditions: 24, 36 and 48 hours after transfection; mutants compared to wild-type EFHC1
Method: Mouse hippocampal neurons primary culture. Hippocampal neurons were isolated from embryonic day 16 mice and plated at 1-2×10^5 cells per well in 24 well plate containing glass coverslips coated with poly-1-lysine and grown in serum-free NEUROBASAL™ media supplemented with B27, 0.5 mM L-glutamine (Invitrogen).
Transfection and immunostaining of mouse hippocampal neurons. […] Cultures were fixed with 4% paraformaldehyde in PBS 16 and 48 hours after transfection, permeabilized with 0.3% Triton X-100, blocked in 3% normal goat serum in PBS, and treated with mouse monoclonal anti-MAP-2 antibody (1:500; Sigma) and Alexa fluor 594 goat anti-mouse IgG antibody (1:1000; Molecular Probes).
TUNEL assay. […] Forty-eight hours after transfection, neuronal apoptosis was detected using DeadEndTM Fluorometric TUNEL System (Promega). Nuclei were visualized with Hoescht 33342 (Molecular Probes). These cells were also stained with anti-Myc antibody (1:200; Cell Signaling) and Alexa fluor 594 goat anti-rabbit IgG antibody (1:1000). All experiments were carried out in duplicate wells and at least repeated three times. Neuron cells were observed on a confocal microscope (OLYMPUS FLUOVIEW) following 48 hours post transfection.
Cell death analyses with EFHC1 mutants. […] Surviving cell numbers were scored by counting GFP fluorescent-positive cells that attached to dishes. At each counting, detached cells (dead cells) were carefully removed by changing culture medium. Morphologies of cells (cell shape, length and number of neurites, shrinkage, etc.) were not considered for the counting. Surviving cell numbers were scored at 24, 36, and 48 hours after transfection. Analyses were repeated twice by using two independently prepared expression construct DNAs. In total, neurons in seven wells of 24 well plates were counted for each transfection and time point. Experiments were performed in a blinded fashion.

PQ type VDCC (Cav2.1) = biological target: T1, PQ type VDCC (Cav2.1) (Oryctolagus cuniculus, UniProt P27884); assay: Patch-clamp analyses of HEK cell line with P/Q type VDCCs and wild type EFHC1 or mutant constructs; format: cell-based; conditions: for Activation V0.5 (mV): half-maximal voltage of activation; for Activation V0.5 (mV) / Inactivation V0.5 (mV) / Activation k (mV) / Inactivation K (mV): mean ± SEM; for Inactivation V0.5 (mV): half-maximal voltage of inactivation; for inactivation speed of P/Q type VDCC (decelerating effect on calcium inactivation): patch-clamp; for Activation k (mV) / Inactivation K (mV): slope factor
T1 construct: expressed in transfected cells; host or cells: HEK cell line
T1 sequence (P27884 whole entry): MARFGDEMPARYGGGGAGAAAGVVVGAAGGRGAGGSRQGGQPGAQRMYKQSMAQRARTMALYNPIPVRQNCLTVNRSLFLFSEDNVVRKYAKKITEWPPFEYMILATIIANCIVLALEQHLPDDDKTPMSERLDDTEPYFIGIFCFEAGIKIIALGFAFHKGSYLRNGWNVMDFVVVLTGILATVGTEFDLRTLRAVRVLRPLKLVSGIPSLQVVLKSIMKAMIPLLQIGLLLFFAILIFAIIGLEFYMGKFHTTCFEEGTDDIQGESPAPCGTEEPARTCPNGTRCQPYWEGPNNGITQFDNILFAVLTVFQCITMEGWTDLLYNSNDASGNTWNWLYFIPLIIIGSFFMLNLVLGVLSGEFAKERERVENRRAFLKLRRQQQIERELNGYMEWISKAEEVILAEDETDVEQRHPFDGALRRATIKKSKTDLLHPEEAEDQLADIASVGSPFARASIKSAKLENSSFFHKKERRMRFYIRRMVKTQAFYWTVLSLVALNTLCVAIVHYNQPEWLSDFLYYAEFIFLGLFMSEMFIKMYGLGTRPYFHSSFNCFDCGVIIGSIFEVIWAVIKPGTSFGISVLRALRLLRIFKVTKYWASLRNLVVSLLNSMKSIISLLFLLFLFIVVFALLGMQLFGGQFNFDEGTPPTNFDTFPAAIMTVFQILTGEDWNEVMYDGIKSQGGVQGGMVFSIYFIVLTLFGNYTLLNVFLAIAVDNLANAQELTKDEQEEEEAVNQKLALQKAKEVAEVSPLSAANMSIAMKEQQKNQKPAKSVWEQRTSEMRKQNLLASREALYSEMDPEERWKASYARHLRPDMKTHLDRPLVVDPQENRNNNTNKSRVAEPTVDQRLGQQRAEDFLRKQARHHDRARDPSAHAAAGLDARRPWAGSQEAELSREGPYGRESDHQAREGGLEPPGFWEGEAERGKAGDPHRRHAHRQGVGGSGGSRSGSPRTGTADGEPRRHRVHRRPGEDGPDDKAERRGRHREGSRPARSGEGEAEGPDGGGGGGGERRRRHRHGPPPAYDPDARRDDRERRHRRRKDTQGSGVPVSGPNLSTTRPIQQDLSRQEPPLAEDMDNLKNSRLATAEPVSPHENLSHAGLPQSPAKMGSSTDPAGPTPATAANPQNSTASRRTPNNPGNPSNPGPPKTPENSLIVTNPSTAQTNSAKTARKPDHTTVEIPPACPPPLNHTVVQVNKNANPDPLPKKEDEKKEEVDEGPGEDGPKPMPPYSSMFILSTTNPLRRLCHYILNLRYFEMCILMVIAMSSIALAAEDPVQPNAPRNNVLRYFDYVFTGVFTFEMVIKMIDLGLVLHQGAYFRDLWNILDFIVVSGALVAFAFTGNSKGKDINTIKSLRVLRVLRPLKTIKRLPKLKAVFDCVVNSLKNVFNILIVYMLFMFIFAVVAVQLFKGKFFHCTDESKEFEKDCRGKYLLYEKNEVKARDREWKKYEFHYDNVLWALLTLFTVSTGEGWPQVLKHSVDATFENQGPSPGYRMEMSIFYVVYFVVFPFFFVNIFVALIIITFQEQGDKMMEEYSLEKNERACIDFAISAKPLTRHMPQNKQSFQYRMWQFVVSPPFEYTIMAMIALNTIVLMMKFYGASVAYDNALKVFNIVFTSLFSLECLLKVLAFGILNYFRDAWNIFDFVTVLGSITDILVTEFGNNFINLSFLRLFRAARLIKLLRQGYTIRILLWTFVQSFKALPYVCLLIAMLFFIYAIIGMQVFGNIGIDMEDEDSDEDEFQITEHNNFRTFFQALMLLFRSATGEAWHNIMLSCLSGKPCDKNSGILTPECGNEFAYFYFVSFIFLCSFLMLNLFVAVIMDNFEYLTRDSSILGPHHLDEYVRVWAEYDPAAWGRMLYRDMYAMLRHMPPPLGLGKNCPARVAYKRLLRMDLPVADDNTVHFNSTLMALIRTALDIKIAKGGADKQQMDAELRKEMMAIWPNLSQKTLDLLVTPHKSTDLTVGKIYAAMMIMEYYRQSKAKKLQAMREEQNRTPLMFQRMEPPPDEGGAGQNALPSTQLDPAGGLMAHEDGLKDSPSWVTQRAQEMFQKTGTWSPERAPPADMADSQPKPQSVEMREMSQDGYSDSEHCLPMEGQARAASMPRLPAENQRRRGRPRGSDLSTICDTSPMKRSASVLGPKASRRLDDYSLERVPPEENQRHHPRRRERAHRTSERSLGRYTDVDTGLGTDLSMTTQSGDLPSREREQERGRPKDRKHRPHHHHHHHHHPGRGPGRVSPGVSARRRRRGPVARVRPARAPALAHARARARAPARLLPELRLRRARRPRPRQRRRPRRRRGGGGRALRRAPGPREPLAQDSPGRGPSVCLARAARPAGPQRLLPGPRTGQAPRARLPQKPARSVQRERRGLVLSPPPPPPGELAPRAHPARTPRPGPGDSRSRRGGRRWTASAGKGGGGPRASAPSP
T1 sequence (P13806 27-1106 partner): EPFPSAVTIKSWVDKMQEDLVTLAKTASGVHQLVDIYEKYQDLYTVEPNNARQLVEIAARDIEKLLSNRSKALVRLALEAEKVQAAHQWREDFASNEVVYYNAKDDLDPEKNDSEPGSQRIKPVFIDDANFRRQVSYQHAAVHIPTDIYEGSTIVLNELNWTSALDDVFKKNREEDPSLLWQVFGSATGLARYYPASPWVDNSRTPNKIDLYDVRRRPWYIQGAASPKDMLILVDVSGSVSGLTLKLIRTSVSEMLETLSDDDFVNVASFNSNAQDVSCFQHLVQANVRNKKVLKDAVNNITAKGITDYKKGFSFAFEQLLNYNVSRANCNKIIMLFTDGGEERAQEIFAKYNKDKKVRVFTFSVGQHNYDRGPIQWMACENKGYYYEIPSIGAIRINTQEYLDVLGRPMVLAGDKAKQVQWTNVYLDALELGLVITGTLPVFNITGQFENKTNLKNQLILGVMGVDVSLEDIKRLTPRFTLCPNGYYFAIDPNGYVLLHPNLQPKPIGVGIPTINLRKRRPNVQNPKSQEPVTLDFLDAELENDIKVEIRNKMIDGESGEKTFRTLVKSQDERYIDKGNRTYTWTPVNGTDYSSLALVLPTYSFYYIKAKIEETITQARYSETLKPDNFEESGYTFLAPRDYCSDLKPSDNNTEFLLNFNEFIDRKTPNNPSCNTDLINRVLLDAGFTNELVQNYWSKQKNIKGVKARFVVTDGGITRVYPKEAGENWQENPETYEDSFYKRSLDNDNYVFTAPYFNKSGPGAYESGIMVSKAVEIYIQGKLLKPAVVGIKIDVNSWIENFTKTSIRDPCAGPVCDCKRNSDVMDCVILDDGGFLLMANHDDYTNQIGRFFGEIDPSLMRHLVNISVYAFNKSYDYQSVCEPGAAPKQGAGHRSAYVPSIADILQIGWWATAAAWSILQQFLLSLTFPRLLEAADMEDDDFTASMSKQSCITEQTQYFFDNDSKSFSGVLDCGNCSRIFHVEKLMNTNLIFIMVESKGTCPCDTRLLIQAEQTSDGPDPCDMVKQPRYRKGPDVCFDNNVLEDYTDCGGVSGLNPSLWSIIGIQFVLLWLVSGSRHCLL
T1 sequence (P19517 whole entry partner): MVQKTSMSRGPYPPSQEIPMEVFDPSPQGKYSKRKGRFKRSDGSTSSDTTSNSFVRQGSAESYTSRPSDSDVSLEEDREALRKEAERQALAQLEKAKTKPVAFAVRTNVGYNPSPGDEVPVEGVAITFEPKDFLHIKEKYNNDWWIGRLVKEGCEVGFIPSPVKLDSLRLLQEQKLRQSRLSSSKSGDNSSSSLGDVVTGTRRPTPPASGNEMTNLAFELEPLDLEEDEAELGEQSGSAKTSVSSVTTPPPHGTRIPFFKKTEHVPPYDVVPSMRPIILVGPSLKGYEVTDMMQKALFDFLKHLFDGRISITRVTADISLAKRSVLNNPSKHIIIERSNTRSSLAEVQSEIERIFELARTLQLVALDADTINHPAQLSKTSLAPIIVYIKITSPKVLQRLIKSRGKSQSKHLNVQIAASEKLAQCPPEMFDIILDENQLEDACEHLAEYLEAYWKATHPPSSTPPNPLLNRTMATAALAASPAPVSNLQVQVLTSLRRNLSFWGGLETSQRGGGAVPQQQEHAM

| Molecule | cell-death effect (GFP-positive surviving cell numbers) [1] | Ca2+ current density of P/Q-type VDCC (Cav2.1) (PQ type VDCC (Cav2.1); cells co-transfected with P/Q-type VDCC and EFHC1 constructs) | Activation V0.5 (mV) (PQ type VDCC (Cav2.1)) | Inactivation V0.5 (mV) (PQ type VDCC (Cav2.1)) | inactivation speed of P/Q type VDCC (decelerating effect on calcium inactivation) (PQ type VDCC (Cav2.1)) | Activation k (mV) (PQ type VDCC (Cav2.1)) | Inactivation K (mV) (PQ type VDCC (Cav2.1)) |
| --- | --- | --- | --- | --- | --- | --- | --- |
| P77T/R221H: EFHC1 protein with the double mutation P77T and R221H (protein) MVSNPVHGLPFLPGTSFKDSTKTAFHRSQTLSYRNGYAIVRRPTVGIGGDRLQFNQLSQAELDELASKAPVLTYGQTKQAPPADFIPAHVAFDKKVLKFDAYFQEDVPMSTEEQYRIRQVNIYYYLEDDSMSVIEPVVENSGILQGKLIKRQRLAKNDRGDHYHWKDLNRGINITIYGKTFRVVDCDQFTQVFLESQGIELNPPEKMALDPYTELRKQPLHKYVTPSDFDQLKQFLTFDKQVLRFYAIWDDTDSMYGECRTYIIHYYLMDDTVEIREVHERNDGRDPFPLLMNRQRVPKVLVENAKNFPQCVLEISDQEVLEWYTAKDFIVGKSLTILGRTFFIYDCDPFTRRYYKEKFGITDLPRIDVSKREPPPVKQELPPYNGFGLVEDSAQNCFTLIPKAPKKDVIKMLVNDNKVLRYLAVLESPIPEDKDRRFVFSYFLATDMISIFEPPVRNSGIIGGKYLGRTKVVKPYSTVDNPVYYGPSDFFIGAVIEVFGHRFIILDTDEYVLKYMESNAAQYSPEALASIQNHVRKREAPAPEAESKQTEKDPGVQELEALIDTIQKQLKDHSCKDNIREAFQIYDKEASGYVDRDMFFKICESLNVPVDDSLVKELIRMCSHGEGKINYYNFVRAFSN | significantly reduced; also recorded: significantly reversed |  |  |  |  |  |  |
| P77T: EFHC1 protein with JME missense mutation P77T (Pro77Thr) (protein) MVSNPVHGLPFLPGTSFKDSTKTAFHRSQTLSYRNGYAIVRRPTVGIGGDRLQFNQLSQAELDELASKAPVLTYGQTKQAPPADFIPAHVAFDKKVLKFDAYFQEDVPMSTEEQYRIRQVNIYYYLEDDSMSVIEPVVENSGILQGKLIKRQRLAKNDRGDHYHWKDLNRGINITIYGKTFRVVDCDQFTQVFLESQGIELNPPEKMALDPYTELRKQPLRKYVTPSDFDQLKQFLTFDKQVLRFYAIWDDTDSMYGECRTYIIHYYLMDDTVEIREVHERNDGRDPFPLLMNRQRVPKVLVENAKNFPQCVLEISDQEVLEWYTAKDFIVGKSLTILGRTFFIYDCDPFTRRYYKEKFGITDLPRIDVSKREPPPVKQELPPYNGFGLVEDSAQNCFTLIPKAPKKDVIKMLVNDNKVLRYLAVLESPIPEDKDRRFVFSYFLATDMISIFEPPVRNSGIIGGKYLGRTKVVKPYSTVDNPVYYGPSDFFIGAVIEVFGHRFIILDTDEYVLKYMESNAAQYSPEALASIQNHVRKREAPAPEAESKQTEKDPGVQELEALIDTIQKQLKDHSCKDNIREAFQIYDKEASGYVDRDMFFKICESLNVPVDDSLVKELIRMCSHGEGKINYYNFVRAFSN | significantly reversed | moderately increased | 23.0 ± 3.2 mV | −15.8 ± 1.4 mV | abolished the decelerating effect | 8.87 ± 1.67 mV | 6.59 ± 0.44 mV |
| D210N: EFHC1 protein with JME missense mutation D210N (Asp210Asn) (protein) MVSNPVHGLPFLPGTSFKDSTKTAFHRSQTLSYRNGYAIVRRPTVGIGGDRLQFNQLSQAELDELASKAPVLTYGQPKQAPPADFIPAHVAFDKKVLKFDAYFQEDVPMSTEEQYRIRQVNIYYYLEDDSMSVIEPVVENSGILQGKLIKRQRLAKNDRGDHYHWKDLNRGINITIYGKTFRVVDCDQFTQVFLESQGIELNPPEKMALNPYTELRKQPLRKYVTPSDFDQLKQFLTFDKQVLRFYAIWDDTDSMYGECRTYIIHYYLMDDTVEIREVHERNDGRDPFPLLMNRQRVPKVLVENAKNFPQCVLEISDQEVLEWYTAKDFIVGKSLTILGRTFFIYDCDPFTRRYYKEKFGITDLPRIDVSKREPPPVKQELPPYNGFGLVEDSAQNCFTLIPKAPKKDVIKMLVNDNKVLRYLAVLESPIPEDKDRRFVFSYFLATDMISIFEPPVRNSGIIGGKYLGRTKVVKPYSTVDNPVYYGPSDFFIGAVIEVFGHRFIILDTDEYVLKYMESNAAQYSPEALASIQNHVRKREAPAPEAESKQTEKDPGVQELEALIDTIQKQLKDHSCKDNIREAFQIYDKEASGYVDRDMFFKICESLNVPVDDSLVKELIRMCSHGEGKINYYNFVRAFSN | significantly reversed |  | 24.1 ± 1.4 mV | −9.4 ± 1.4 mV | did not significantly affect | 9.08 ± 0.71 mV | 6.44 ± 0.33 mV |
| R159W: EFHC1 protein with coding polymorphism R159W (Arg159Trp) (protein) MVSNPVHGLPFLPGTSFKDSTKTAFHRSQTLSYRNGYAIVRRPTVGIGGDRLQFNQLSQAELDELASKAPVLTYGQPKQAPPADFIPAHVAFDKKVLKFDAYFQEDVPMSTEEQYRIRQVNIYYYLEDDSMSVIEPVVENSGILQGKLIKRQRLAKNDWGDHYHWKDLNRGINITIYGKTFRVVDCDQFTQVFLESQGIELNPPEKMALDPYTELRKQPLRKYVTPSDFDQLKQFLTFDKQVLRFYAIWDDTDSMYGECRTYIIHYYLMDDTVEIREVHERNDGRDPFPLLMNRQRVPKVLVENAKNFPQCVLEISDQEVLEWYTAKDFIVGKSLTILGRTFFIYDCDPFTRRYYKEKFGITDLPRIDVSKREPPPVKQELPPYNGFGLVEDSAQNCFTLIPKAPKKDVIKMLVNDNKVLRYLAVLESPIPEDKDRRFVFSYFLATDMISIFEPPVRNSGIIGGKYLGRTKVVKPYSTVDNPVYYGPSDFFIGAVIEVFGHRFIILDTDEYVLKYMESNAAQYSPEALASIQNHVRKREAPAPEAESKQTEKDPGVQELEALIDTIQKQLKDHSCKDNIREAFQIYDKEASGYVDRDMFFKICESLNVPVDDSLVKELIRMCSHGEGKINYYNFVRAFSN | largely maintained |  |  |  |  |  |  |
| R221H: EFHC1 protein with JME missense mutation R221H (Arg221His) (protein) MVSNPVHGLPFLPGTSFKDSTKTAFHRSQTLSYRNGYAIVRRPTVGIGGDRLQFNQLSQAELDELASKAPVLTYGQPKQAPPADFIPAHVAFDKKVLKFDAYFQEDVPMSTEEQYRIRQVNIYYYLEDDSMSVIEPVVENSGILQGKLIKRQRLAKNDRGDHYHWKDLNRGINITIYGKTFRVVDCDQFTQVFLESQGIELNPPEKMALDPYTELRKQPLHKYVTPSDFDQLKQFLTFDKQVLRFYAIWDDTDSMYGECRTYIIHYYLMDDTVEIREVHERNDGRDPFPLLMNRQRVPKVLVENAKNFPQCVLEISDQEVLEWYTAKDFIVGKSLTILGRTFFIYDCDPFTRRYYKEKFGITDLPRIDVSKREPPPVKQELPPYNGFGLVEDSAQNCFTLIPKAPKKDVIKMLVNDNKVLRYLAVLESPIPEDKDRRFVFSYFLATDMISIFEPPVRNSGIIGGKYLGRTKVVKPYSTVDNPVYYGPSDFFIGAVIEVFGHRFIILDTDEYVLKYMESNAAQYSPEALASIQNHVRKREAPAPEAESKQTEKDPGVQELEALIDTIQKQLKDHSCKDNIREAFQIYDKEASGYVDRDMFFKICESLNVPVDDSLVKELIRMCSHGEGKINYYNFVRAFSN | significantly reversed |  | 17.7 ± 1.9 mV | −17.0 ± 2.5 mV | abolished the decelerating effect | 7.08 ± 0.81 mV | 7.00 ± 0.27 mV |
| R182H: EFHC1 protein with coding polymorphism R182H (Arg182His) (protein) MVSNPVHGLPFLPGTSFKDSTKTAFHRSQTLSYRNGYAIVRRPTVGIGGDRLQFNQLSQAELDELASKAPVLTYGQPKQAPPADFIPAHVAFDKKVLKFDAYFQEDVPMSTEEQYRIRQVNIYYYLEDDSMSVIEPVVENSGILQGKLIKRQRLAKNDRGDHYHWKDLNRGINITIYGKTFHVVDCDQFTQVFLESQGIELNPPEKMALDPYTELRKQPLRKYVTPSDFDQLKQFLTFDKQVLRFYAIWDDTDSMYGECRTYIIHYYLMDDTVEIREVHERNDGRDPFPLLMNRQRVPKVLVENAKNFPQCVLEISDQEVLEWYTAKDFIVGKSLTILGRTFFIYDCDPFTRRYYKEKFGITDLPRIDVSKREPPPVKQELPPYNGFGLVEDSAQNCFTLIPKAPKKDVIKMLVNDNKVLRYLAVLESPIPEDKDRRFVFSYFLATDMISIFEPPVRNSGIIGGKYLGRTKVVKPYSTVDNPVYYGPSDFFIGAVIEVFGHRFIILDTDEYVLKYMESNAAQYSPEALASIQNHVRKREAPAPEAESKQTEKDPGVQELEALIDTIQKQLKDHSCKDNIREAFQIYDKEASGYVDRDMFFKICESLNVPVDDSLVKELIRMCSHGEGKINYYNFVRAFSN | largely maintained |  |  |  |  |  |  |
| 1619L: EFHC1 protein with coding polymorphism I619L (protein, UniProt Q5JVL4 1-640, looked up, variant I619L) EF-hand domain-containing …: MVSNPVHGLPFLPGTSFKDSTKTAFHRSQTLSYRNGYAIVRRPTVGIGGDRLQFNQLSQAELDELASKAPVLTYGQPKQAPPADFIPAHVAFDKKVLKFDAYFQEDVPMSTEEQYRIRQVNIYYYLEDDSMSVIEPVVENSGILQGKLIKRQRLAKNDRGDHYHWKDLNRGINITIYGKTFRVVDCDQFTQVFLESQGIELNPPEKMALDPYTELRKQPLRKYVTPSDFDQLKQFLTFDKQVLRFYAIWDDTDSMYGECRTYIIHYYLMDDTVEIREVHERNDGRDPFPLLMNRQRVPKVLVENAKNFPQCVLEISDQEVLEWYTAKDFIVGKSLTILGRTFFIYDCDPFTRRYYKEKFGITDLPRIDVSKREPPPVKQELPPYNGFGLVEDSAQNCFALIPKAPKKDVIKMLVNDNKVLRYLAVLESPIPEDKDRRFVFSYFLATDMISIFEPPVRNSGIIGGKYLGRTKVVKPYSTVDNPVYYGPSDFFIGAVIEVFGHRFIILDTDEYVLKYMESNAAQYSPEALASIQNHVRKREAPAPEAESKQTEKDPGVQELEALIDTIQKQLKDHSCKDNIREAFQIYDKEASGYVDRDMFFKICESLNVPVDDSLVKELLRMCSHGEGKINYYNFVRAFSN | largely maintained |  |  |  |  |  |  |
